# In patent US20140219913A1 (AbbVie / Abbott, published 2014):
# Legend:
# [1] = target: TNF-alpha; assay: cell-based or functional assay
# [2] = target: NGF; assay: cell-based or functional assay
"N-terminal L929 Assay (EC50, pM) [1]","C-terminal Bioassay Mean (IC50, nM): Cell Impedance assay [2]","C-terminal Bioassay Mean (IC50, nM): pERK assay [2]",Binder
50 pM,1.6 nM,0.6 nM,RAB030 (other) VH: LPAQVAFTPYAPEPGSTCRLREYYDQTAQMCCSKCSPGQHAKVFCTKTSDTVCDSCEDSTYTQLWNWVPECLSCGSRCSSDQVETQACTREQNRICTCRPGWYCALSKQEGCRLCAPLRKCRPGFGVARPGTETSDVVCKPCAPGTFSNTTSSTDICRPHQICNVVAIPGNASMDAVCTSTSPTRSMAPGAVHLPQPVSTRSQHTQPTPEPSTAPSTSFLLPMGPSPPAEGSTGDASTKGPQVQLQESGPGLVKPSETLSLTCTVSGFSLIGYDLNWIRQPPGKGLEWIGIIWGDGTTDYNSAVKSRVTISKDTSKNQFSLKLSSVTAADTAVYYCARGGYWYATSYYFDYWGQGTLVTVSS VL: DIQMTQSPSSLSASVGDRVTITCRASQSISNNLNWYQQKPGKAPKLLIYYTSRFHSGVPSRFSGSGSGTDFTFTISSLQPEDIATYYCQQEHTLPYTFGQGTKLEIKR
120 pM,1.1 nM,0.5 nM,RAB031 (other) VH: QVQLQESGPGLVKPSETLSLTCTVSGFSLIGYDLNWIRQPPGKGLEWIGIIWGDGTTDYNSAVKSRVTISKDTSKNQFSLKLSSVTAADTAVYYCARGGYWYATSYYFDYWGQGTLVTVSS VL: LPAQVAFTPYAPEPGSTCRLREYYDQTAQMCCSKCSPGQHAKVFCTKTSDTVCDSCEDSTYTQLWNWVPECLSCGSRCSSDQVETQACTREQNRICTCRPGWYCALSKQEGCRLCAPLRKCRPGFGVARPGTETSDVVCKPCAPGTFSNTTSSTDICRPHQICNVVAIPGNASMDAVCTSTSPTRSMAPGAVHLPQPVSTRSQHTQPTPEPSTAPSTSFLLPMGPSPPAEGSTGDTVAAPDIQMTQSPSSLSASVGDRVTITCRASQSISNNLNWYQQKPGKAPKLLIYYTSRFHSGVPSRFSGSGSGTDFTFTISSLQPEDIATYYCQQEHTLPYTFGQGTKLEIKR
